The source of these data is patent US5306619, “Screening assay for the detection of DNA-binding molecules” (Genelabs Technologies, Inc.).

In series [1] the target is UL9 full length (Herpes simplex virus 1, UniProt P10193 P10193:1-851). The series can be described thus: EMSA; dissociation time at 4 C, competition with SEQ 16. As to conditions: protein: extract; tags: baculovirus/Sf9 expressed, partially purified extract; label: 32P. For orientation: In EMSA bound probe runs differently from free probe, usually more slowly.
Series [2] has as its target UL9-COOH (C-terminal 317 aa of HSV UL9) (Herpes simplex virus 1, UniProt P10193 P10193:535-851). Briefly: EMSA; dissociation time at 4 C, competition with SEQ 16; 20 mM HEPES pH 7.2, 50 mM KCl, 1 mM DTT. As to conditions: tags: GST fusion from pGEX-2T, thrombin cleaved; crude E. coli extracts also used; label: 32P.

UL9 full length, sequence (P10193 whole entry, the tested form may be a part, one chain of several): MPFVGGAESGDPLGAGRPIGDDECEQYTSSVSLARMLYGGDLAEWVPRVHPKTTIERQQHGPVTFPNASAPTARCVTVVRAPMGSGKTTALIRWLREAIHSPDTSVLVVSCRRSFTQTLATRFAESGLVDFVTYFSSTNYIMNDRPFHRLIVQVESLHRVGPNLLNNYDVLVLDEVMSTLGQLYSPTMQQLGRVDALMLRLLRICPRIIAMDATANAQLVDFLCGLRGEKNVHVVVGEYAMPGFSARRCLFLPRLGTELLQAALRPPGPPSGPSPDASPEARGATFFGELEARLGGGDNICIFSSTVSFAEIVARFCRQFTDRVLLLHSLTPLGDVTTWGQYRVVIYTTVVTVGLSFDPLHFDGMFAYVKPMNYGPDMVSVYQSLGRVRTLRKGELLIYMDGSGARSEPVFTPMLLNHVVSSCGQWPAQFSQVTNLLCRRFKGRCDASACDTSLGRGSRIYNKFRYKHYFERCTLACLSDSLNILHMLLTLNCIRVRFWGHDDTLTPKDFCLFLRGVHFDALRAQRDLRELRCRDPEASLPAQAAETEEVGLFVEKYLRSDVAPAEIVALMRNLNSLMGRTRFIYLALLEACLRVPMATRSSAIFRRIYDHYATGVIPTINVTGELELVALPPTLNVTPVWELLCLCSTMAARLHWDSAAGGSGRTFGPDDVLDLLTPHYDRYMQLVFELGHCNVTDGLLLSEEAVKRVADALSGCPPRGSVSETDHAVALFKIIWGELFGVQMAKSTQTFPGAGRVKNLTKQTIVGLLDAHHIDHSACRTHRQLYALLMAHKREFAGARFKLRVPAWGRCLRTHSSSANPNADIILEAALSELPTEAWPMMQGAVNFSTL
UL9-COOH (C-terminal 317 aa of HSV UL9), sequence (P10193 535-851, one chain of several): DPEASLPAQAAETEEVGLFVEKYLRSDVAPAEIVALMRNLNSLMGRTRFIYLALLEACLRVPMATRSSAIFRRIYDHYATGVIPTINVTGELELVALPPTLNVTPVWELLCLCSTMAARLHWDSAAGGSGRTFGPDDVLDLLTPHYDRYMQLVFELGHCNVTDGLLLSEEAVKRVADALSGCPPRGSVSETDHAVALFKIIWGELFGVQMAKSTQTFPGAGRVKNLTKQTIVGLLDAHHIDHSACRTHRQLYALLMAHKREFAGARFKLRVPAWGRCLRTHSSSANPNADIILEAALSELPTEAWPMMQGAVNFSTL

B1: FIG. 4 HSV oriS oligonucleotide (dsDNA)
DNA 1: AAGTGAGAATTCGAAGCGTTCGCACTTCGTCCCAAT
DNA 2: ATTGGGACGAAGTGCGAACGCTTCGAATTCTCACTT
Regarding B1, the koff in series [1] and in series [2] was roughly 4 h each time.
